Experimental data from patent US20050272659A1 (BRIGHAM AND WOMEN S HOSPITAL, published 2005).
Starred links: 1 amine or outer side, 2 acyl side, 3 side chain; linkers in the order of their positions; H or OH if unused. Non-standard residues stand in square brackets, D forms with d. *: point of attachment. dThr(OBz) = D-threonine with an O-benzyl (OBz) group, C[C@H](OCc1ccccc1)[C@@H](N[*:1])C(=O)[*:2]; Thr(OBz) = threonine with O-benzyl ester (OBz); dBpa = N[C@H](Cc1ccc(C(=O)c2ccccc2)cc1)C(=O)O; Boc = CC(C)(C)OC(=O)*; Aib = CC(C)(N)C(=O)O

Biological target: T1, γ-secretase in Chinese hamster ovary (CHO) cells stably transfected with human APP
Assay: cell-based or functional assay

IC50 in the same cell-based assay using CHO cells stably transfected with human APP (total Aβ production)	IC50 in a cell-based assay from APP-transfected CHO cells	IC50 of Aβ production in APP-transfected cells	Binder
100 nM	–	–	Boc-[dV]G[Aib][dV][dV][dBpa][Aib][dThr(OBz)][dV][Aib]-OMe (SMILES COC(=O)C(C)(C)NC(=O)[C@H](NC(=O)[C@H](NC(=O)C(C)(C)NC(=O)[C@@H](Cc1ccc(C(=O)c2ccccc2)cc1)NC(=O)[C@H](NC(=O)[C@H](NC(=O)C(C)(C)NC(=O)CNC(=O)[C@H](NC(=O)OC(C)(C)C)C(C)C)C(C)C)C(C)C)[C@H](C)OCc1ccccc1)C(C)C) [Boc-D-Val-Gly-Aib-D-Val-D-Val-D-BPA-Aib-D-Thr(OBz)-D-Val-Aib-OMe (SEQ ID NO:11)]
–	9 nM	–	Boc-[dV]G[Aib][dV][dV][dI][Aib][dThr(OBz)][dV][Aib][dV][dI][Aib]-OMe (SMILES CC[C@@H](C)[C@@H](NC(=O)[C@H](NC(=O)[C@H](NC(=O)C(C)(C)NC(=O)CNC(=O)[C@H](NC(=O)OC(C)(C)C)C(C)C)C(C)C)C(C)C)C(=O)NC(C)(C)C(=O)N[C@@H](C(=O)N[C@@H](C(=O)NC(C)(C)C(=O)N[C@@H](C(=O)N[C@@H](C(=O)NC(C)(C)C(=O)OC)[C@H](C)CC)C(C)C)C(C)C)[C@H](C)OCc1ccccc1) [D-peptide Boc-Val-Gly-Aib-Val-Val-Ile-Aib-Thr(OBz)-Val-Aib-Val-Ile-Aib-OMe (SEQ ID NO:18)]
–	–	2000 nM	Boc-[Aib]AL[Aib]AL[Aib]AL[Aib]-OMe (SMILES COC(=O)C(C)(C)NC(=O)[C@H](CC(C)C)NC(=O)[C@H](C)NC(=O)C(C)(C)NC(=O)[C@H](CC(C)C)NC(=O)[C@H](C)NC(=O)C(C)(C)NC(=O)[C@H](CC(C)C)NC(=O)[C@H](C)NC(=O)C(C)(C)NC(=O)OC(C)(C)C) [Boc-Aib-Ala-Leu-Aib-Ala-Leu-Aib-Ala-Leu-Aib-OMe (SEQ ID NO:13)]

Biological target: γ-secretase (detergent-solubilized membranes from HeLa cells)
Assay: cell-based or functional assay

Cell-free Assay IC50 (concentration required for 50% inhibition of Aβ40 production)	Binder
28 nM	Boc-[Aib][dV][dV][dI][Aib][dThr(OBz)][dV][Aib][dV][dI][Aib]-OMe (SMILES CC[C@@H](C)[C@@H](NC(=O)[C@H](NC(=O)[C@H](NC(=O)C(C)(C)NC(=O)OC(C)(C)C)C(C)C)C(C)C)C(=O)NC(C)(C)C(=O)N[C@@H](C(=O)N[C@@H](C(=O)NC(C)(C)C(=O)N[C@@H](C(=O)N[C@@H](C(=O)NC(C)(C)C(=O)OC)[C@H](C)CC)C(C)C)C(C)C)[C@H](C)OCc1ccccc1) [D-peptide Boc-Aib-Val-Val-Ile-Aib-Thr(OBz)-Val-Aib-Val-Ile-Aib-OMe (SEQ ID NO:16)]
4700 nM	Boc-L[Aib]VG[Aib]VVI[Aib][Thr(OBz)]V[Aib]VI[Aib]-OMe [L-peptide Boc-Leu-Aib-Val-Gly-Aib-Val-Val-Ile-Aib-Thr(OBz)-Val-Aib-Val-Ile-Aib-OMe (SEQ ID NO:20)]
14 nM	Boc-[Aib][dV]G[Aib][dV][dV][dI][Aib][dThr(OBz)][dV][Aib][dV][dI][Aib]-OMe (SMILES CC[C@@H](C)[C@@H](NC(=O)[C@H](NC(=O)[C@H](NC(=O)C(C)(C)NC(=O)CNC(=O)[C@H](NC(=O)C(C)(C)NC(=O)OC(C)(C)C)C(C)C)C(C)C)C(C)C)C(=O)NC(C)(C)C(=O)N[C@@H](C(=O)N[C@@H](C(=O)NC(C)(C)C(=O)N[C@@H](C(=O)N[C@@H](C(=O)NC(C)(C)C(=O)OC)[C@H](C)CC)C(C)C)C(C)C)[C@H](C)OCc1ccccc1) [D-peptide Boc-Aib-Val-Gly-Aib-Val-Val-Ile-Aib-Thr(OBz)-Val-Aib-Val-Ile-Aib-OMe (SEQ ID NO:19)]
0.14 nM	Boc-[dV]G[Aib][dV][dV][dI][Aib][dThr(OBz)][dV][Aib][dV][dI][Aib]-OMe (SMILES CC[C@@H](C)[C@@H](NC(=O)[C@H](NC(=O)[C@H](NC(=O)C(C)(C)NC(=O)CNC(=O)[C@H](NC(=O)OC(C)(C)C)C(C)C)C(C)C)C(C)C)C(=O)NC(C)(C)C(=O)N[C@@H](C(=O)N[C@@H](C(=O)NC(C)(C)C(=O)N[C@@H](C(=O)N[C@@H](C(=O)NC(C)(C)C(=O)OC)[C@H](C)CC)C(C)C)C(C)C)[C@H](C)OCc1ccccc1) [D-peptide Boc-Val-Gly-Aib-Val-Val-Ile-Aib-Thr(OBz)-Val-Aib-Val-Ile-Aib-OMe (SEQ ID NO:18)]
10000 nM	Boc-VVI[Aib][Thr(OBz)]V[Aib]VI[Aib]-OMe [L-peptide Boc-Val-Val-Ile-Aib-Thr(OBz)-Val-Aib-Val-Ile-Aib-OMe (SEQ ID NO:15)]
12 nM	Boc-G[Aib][dV][dV][dI][Aib][dThr(OBz)][dV][Aib][dV][dI][Aib]-OMe (SMILES CC[C@@H](C)[C@@H](NC(=O)[C@H](NC(=O)[C@H](NC(=O)C(C)(C)NC(=O)CNC(=O)OC(C)(C)C)C(C)C)C(C)C)C(=O)NC(C)(C)C(=O)N[C@@H](C(=O)N[C@@H](C(=O)NC(C)(C)C(=O)N[C@@H](C(=O)N[C@@H](C(=O)NC(C)(C)C(=O)OC)[C@H](C)CC)C(C)C)C(C)C)[C@H](C)OCc1ccccc1) [D-peptide Boc-Gly-Aib-Val-Val-Ile-Aib-Thr(OBz)-Val-Aib-Val-Ile-Aib-OMe (SEQ ID NO:17)]
11000 nM	Boc-GL[Aib]VG[Aib]VVI[Aib][Thr(OBz)]V[Aib]VI[Aib]-OMe
16 nM	Boc-[dL][Aib][dV]G[Aib][dV][dV][dI][Aib][dThr(OBz)][dV][Aib][dV][dI][Aib]-OMe (SMILES CC[C@@H](C)[C@@H](NC(=O)[C@H](NC(=O)[C@H](NC(=O)C(C)(C)NC(=O)CNC(=O)[C@H](NC(=O)C(C)(C)NC(=O)[C@@H](CC(C)C)NC(=O)OC(C)(C)C)C(C)C)C(C)C)C(C)C)C(=O)NC(C)(C)C(=O)N[C@@H](C(=O)N[C@@H](C(=O)NC(C)(C)C(=O)N[C@@H](C(=O)N[C@@H](C(=O)NC(C)(C)C(=O)OC)[C@H](C)CC)C(C)C)C(C)C)[C@H](C)OCc1ccccc1) [D-peptide Boc-Leu-Aib-Val-Gly-Aib-Val-Val-Ile-Aib-Thr(OBz)-Val-Aib-Val-Ile-Aib-OMe (SEQ ID NO:20)]
780 nM	Boc-VG[Aib]VVI[Aib][Thr(OBz)]V[Aib]VI[Aib]-OMe [L-peptide Boc-Val-Gly-Aib-Val-Val-Ile-Aib-Thr(OBz)-Val-Aib-Val-Ile-Aib-OMe (SEQ ID NO:18)]
25 nM	Boc-[dV][dV][dI][Aib][dThr(OBz)][dV][Aib][dV][dI][Aib]-OMe (SMILES CC[C@@H](C)[C@@H](NC(=O)[C@H](NC(=O)[C@H](NC(=O)OC(C)(C)C)C(C)C)C(C)C)C(=O)NC(C)(C)C(=O)N[C@@H](C(=O)N[C@@H](C(=O)NC(C)(C)C(=O)N[C@@H](C(=O)N[C@@H](C(=O)NC(C)(C)C(=O)OC)[C@H](C)CC)C(C)C)C(C)C)[C@H](C)OCc1ccccc1) [D-peptide Boc-Val-Val-Ile-Aib-Thr(OBz)-Val-Aib-Val-Ile-Aib-OMe (SEQ ID NO:15)]
910 nM	Boc-[Aib]VG[Aib]VVI[Aib][Thr(OBz)]V[Aib]VI[Aib]-OMe [L-peptide Boc-Aib-Val-Gly-Aib-Val-Val-Ile-Aib-Thr(OBz)-Val-Aib-Val-Ile-Aib-OMe (SEQ ID NO:19)]
360 nM	Boc-G[Aib]VVI[Aib][Thr(OBz)]V[Aib]VI[Aib]-OMe [L-peptide Boc-Gly-Aib-Val-Val-Ile-Aib-Thr(OBz)-Val-Aib-Val-Ile-Aib-OMe (SEQ ID NO:17)]
3100 nM	Boc-[Aib]VVI[Aib][Thr(OBz)]V[Aib]VI[Aib]-OMe [L-peptide Boc-Aib-Val-Val-Ile-Aib-Thr(OBz)-Val-Aib-Val-Ile-Aib-OMe (SEQ ID NO:16)]
26 nM	Boc-G[dL][Aib][dV]G[Aib][dV][dV][dI][Aib][dThr(OBz)][dV][Aib][dV][dI][Aib]-OMe (SMILES CC[C@@H](C)[C@@H](NC(=O)[C@H](NC(=O)[C@H](NC(=O)C(C)(C)NC(=O)CNC(=O)[C@H](NC(=O)C(C)(C)NC(=O)[C@@H](CC(C)C)NC(=O)CNC(=O)OC(C)(C)C)C(C)C)C(C)C)C(C)C)C(=O)NC(C)(C)C(=O)N[C@@H](C(=O)N[C@@H](C(=O)NC(C)(C)C(=O)N[C@@H](C(=O)N[C@@H](C(=O)NC(C)(C)C(=O)OC)[C@H](C)CC)C(C)C)C(C)C)[C@H](C)OCc1ccccc1)

Biological target: T1, γ-secretase in Chinese hamster ovary …
Assay: cell-based or functional assay
Remark: another data set of the same source

IC50 (concentration that reduced production of total Aβ by 50% in CHO cells stably transfected with human APP)	Binder
5000 nM	Boc-GV[Aib]IA[Thr(OBz)][Aib]IV[Aib]-OMe [Boc-Gly-Val-Aib-Ile-Ala-Thr(OBz)-Aib-Ile-Val-Aib-OMe (SEQ ID NO:5), all-L]
15000 nM	Boc-IA[Thr(OBz)][Aib]IV[Aib]-OMe [Boc-Ile-Ala-Thr(OBz)-Aib-Ile-Val-Aib-OMe (SEQ ID NO:2), all-L]
25000 nM	Boc-A[Thr(OBz)][Aib]IV[Aib]-OMe [Boc-Ala-Thr(OBz)-Aib-Ile-Val-Aib-OMe (SEQ ID NO:1), all-L]
6000 nM	Boc-VVI[Aib][Thr(OBz)]V[Aib]-OMe [Boc-Val-Val-Ile-Aib-Thr(OBz)-Val-Aib-OMe (SEQ ID NO:7), all-L]
2000 nM	Boc-V[Aib]IA[Thr(OBz)][Aib]IV[Aib]-OMe [Boc-Val-Aib-Ile-Ala-Thr(OBz)-Aib-Ile-Val-Aib-OMe (SEQ ID NO:4), all-L]
3000 nM	Boc-VG[Aib]VVI[Aib][Thr(OBz)]V[Aib]-OMe [Boc-Val-Gly-Aib-Val-Val-Ile-Aib-Thr(OBz)-Val-Aib-OMe (SEQ ID NO:10), all-L]
12000 nM	Boc-VI[Aib][Thr(OBz)]V[Aib]-OMe [Boc-Val-Ile-Aib-Thr(OBz)-Val-Aib-OMe (SEQ ID NO:6), all-L]
10000 nM	Boc-[Aib]IA[Thr(OBz)][Aib]IV[Aib]-OMe [Boc-Aib-Ile-Ala-Thr(OBz)-Aib-Ile-Val-Aib-OMe (SEQ ID NO:3), all-L]
6000 nM	Boc-[Aib]VVI[Aib][Thr(OBz)]V[Aib]-OMe [Boc-Aib-Val-Val-Ile-Aib-Thr(OBz)-Val-Aib-OMe (SEQ ID NO:8), all-L]
3000 nM	Boc-G[Aib]VVI[Aib][Thr(OBz)]V[Aib]-OMe [Boc-Gly-Aib-Val-Val-Ile-Aib-Thr(OBz)-Val-Aib-OMe (SEQ ID NO:9), all-L]
